Data from US20150004189A1 (published 2015).

Key:
HLA-DP DPB1*0401 = biological target: T1, HLA-DP DPB1*0401 (human); assay: inhibition of radiolabeled peptide binding to purified HLA-DP
T1 chain 1: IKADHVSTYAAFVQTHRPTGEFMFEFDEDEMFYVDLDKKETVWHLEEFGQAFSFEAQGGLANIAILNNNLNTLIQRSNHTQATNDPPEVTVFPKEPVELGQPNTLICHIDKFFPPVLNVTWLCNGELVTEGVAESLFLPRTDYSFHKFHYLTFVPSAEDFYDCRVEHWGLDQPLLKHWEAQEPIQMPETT
T1 chain 2: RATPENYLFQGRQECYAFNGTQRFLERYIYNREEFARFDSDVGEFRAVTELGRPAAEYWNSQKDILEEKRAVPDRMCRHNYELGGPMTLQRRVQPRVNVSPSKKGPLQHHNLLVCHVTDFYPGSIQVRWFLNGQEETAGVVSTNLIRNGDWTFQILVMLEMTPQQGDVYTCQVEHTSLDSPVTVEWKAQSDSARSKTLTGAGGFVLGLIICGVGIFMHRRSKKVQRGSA

[1] = biological target: HLA-DP molecule DPB1*1401 (human); assay: as above
[2] = biological target: HLA-DP molecule DPB1*2001 (human); assay: as above
[3] = biological target: T2, HLA-DP molecule DPB1*0401 (human); assay: as above
T2 chain 1: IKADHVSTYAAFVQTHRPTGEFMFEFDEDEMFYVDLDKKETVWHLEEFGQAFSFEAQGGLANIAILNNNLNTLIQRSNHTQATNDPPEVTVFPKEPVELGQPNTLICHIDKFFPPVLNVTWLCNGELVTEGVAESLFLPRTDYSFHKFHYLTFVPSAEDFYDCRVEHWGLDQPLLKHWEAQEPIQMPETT
T2 chain 2: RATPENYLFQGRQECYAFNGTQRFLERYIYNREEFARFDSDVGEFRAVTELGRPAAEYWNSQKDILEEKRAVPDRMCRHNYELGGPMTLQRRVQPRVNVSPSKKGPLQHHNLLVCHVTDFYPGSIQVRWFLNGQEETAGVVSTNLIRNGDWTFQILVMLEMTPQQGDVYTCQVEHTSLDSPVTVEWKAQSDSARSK

[4] = biological target: HLA DQ molecule DQB1*0503 (human); assay: inhibition of radiolabeled peptide binding to purified HLA class II
[5] = biological target: HLA DQ molecule DQB1*0602 (human); assay: as above
[6] = biological target: HLA-DQ molecule DQB1*0202 (human); assay: inhibition of radiolabeled peptide binding to purified HLA-DQ
[7] = biological target: HLA-DQ molecule DQB1*0502 (human); assay: as above
[8] = biological target: HLA-DQ molecule DQB1*0503 (human); assay: as above
[9] = biological target: HLA-DQ molecule DQB1*0602 (human); assay: as above
[10] = biological target: HLA DQ molecule DQB1*0202 (human); assay: inhibition of radiolabeled peptide binding to purified HLA class II
[11] = biological target: HLA DQ molecule DQB1*0502 (human); assay: as above
[12] = biological target: HLA DQ molecule DQB1*0503 (human); assay: as above; remark: listed apart in the source
[13] = biological target: HLA DQ molecule DQB1*0602 (human); assay: as above; remark: listed apart in the source
[14] = biological target: HLA DQ molecule DQB1*0202 (human); assay: as above; remark: listed apart in the source
[15] = biological target: HLA DQ molecule DQB1*0502 (human); assay: as above; remark: listed apart in the source
[16] = biological target: T3, HLA DP molecule DPB1*0201 (human); assay: competition vs radiolabeled peptide, purified HLA-DP
T3 chain 1: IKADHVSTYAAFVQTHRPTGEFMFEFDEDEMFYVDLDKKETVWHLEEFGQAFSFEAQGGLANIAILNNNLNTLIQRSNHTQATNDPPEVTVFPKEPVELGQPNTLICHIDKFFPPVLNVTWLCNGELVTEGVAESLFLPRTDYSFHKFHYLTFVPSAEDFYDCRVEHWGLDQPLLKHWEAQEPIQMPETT
T3 chain 2: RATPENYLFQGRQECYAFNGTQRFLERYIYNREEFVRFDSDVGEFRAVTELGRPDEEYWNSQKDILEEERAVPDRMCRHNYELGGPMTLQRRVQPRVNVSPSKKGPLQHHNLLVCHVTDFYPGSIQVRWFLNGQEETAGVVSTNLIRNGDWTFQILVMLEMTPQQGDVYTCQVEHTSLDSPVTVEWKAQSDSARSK

[17] = biological target: T4, HLA DP molecule DPB1*0401 (human); assay: as above
T4 chain 1: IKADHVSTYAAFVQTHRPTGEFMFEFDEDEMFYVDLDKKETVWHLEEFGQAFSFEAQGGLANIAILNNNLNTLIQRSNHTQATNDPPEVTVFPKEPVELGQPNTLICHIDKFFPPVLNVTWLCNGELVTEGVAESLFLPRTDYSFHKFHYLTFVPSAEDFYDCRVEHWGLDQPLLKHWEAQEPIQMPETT
T4 chain 2: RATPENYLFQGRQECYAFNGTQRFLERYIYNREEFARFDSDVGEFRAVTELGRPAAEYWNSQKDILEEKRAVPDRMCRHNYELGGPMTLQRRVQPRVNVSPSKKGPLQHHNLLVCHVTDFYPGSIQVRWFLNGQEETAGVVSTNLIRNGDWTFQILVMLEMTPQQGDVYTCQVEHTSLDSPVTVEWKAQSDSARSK

Q: With IKSDKPLKGPFNFRF [Lol p 2 peptide 56-70 IKSDKPLKGPFNFRF (Peptide ID 3324.1140)] as the binder, how does the IC50 (HLA-DP DPB1*0401) read?
A: 12.3 µM

Q: How did the IC50 [1] turn out when DAYVATLTEALRVIA [Lol p 5 1 peptide, position 151, DAYVATLTEALRVIA (Peptide ID 3324.1167), listing 1 of 2 here] was run?
A: 4.4 µM

Q: What about the IC50 [2] of the same binder?
A: 0.597 µM

Q: And the IC50 [3]?
A: 0.515 µM

Q: ATPEAKFDSFVAAFT [Poa p 5 peptide, position 121, ATPEAKFD5FVAAFT as printed in Table 8 (Peptide ID 3324.1570)] was tested. Which IC50 [1] did it give?
A: 2.77 µM

Q: And the IC50 [2]?
A: 3.24 µM

Q: What about the IC50 [3] of the same binder?
A: 4.85 µM

Q: What does the source list for MRNVFDDVVPADFKV [Lol p 2 peptide, position 76, MRNVFDDVVPADFKV (Peptide ID 3337.0030)]?
A: IC50 [4]: 0.347 µM; IC50 [5]: 39.5 µM

Q: How did the IC50 [6] turn out when PARLFKAFVLDSDNL [Que a 1 (16-30) peptide PARLFKAFVLDSDNL] was run?
A: 0.31 µM

Q: And the IC50 [7]?
A: 0.0079 µM

Q: What about the IC50 [8] of the same binder?
A: 0.161 µM

Q: And the IC50 [9]?
A: 2.6 µM

Q: For RYANPIAFFRKEPLK [Lol p 11 peptide 111-125 RYANPIAFFRKEPLK (Peptide ID 3324.1138)], which IC50 (HLA-DP DPB1*0401) is on record?
A: 2.06 µM

Q: With NGNELLLDLSLTKVN [Fel d 1 2 (36-50) peptide NGNELLLDLSLTKVN, Peptide ID 3324.1055] as the binder, how does the IC50 [10] read?
A: 8.02 µM

Q: What about the IC50 [11] of the same binder?
A: 2.87 µM

Q: And the IC50 [12]?
A: 9.37 µM

Q: DGVWEIKSDKPLKGP [Lol p 2 peptide 51-65 DGVWEIKSDKPLKGP (Peptide ID 3324.1139)] was tested. Which IC50 (HLA-DP DPB1*0401) did it give?
A: 5.21 µM

Q: How did the IC50 [12] turn out when NALSVLDKIYTSPLC [Fel d 1 1 (78-92) peptide NALSVLDKIYTSPLC, Peptide ID 3324.1050] was run?
A: 5.83 µM

Q: What about the IC50 [13] of the same binder?
A: 1 µM

Q: How did the IC50 [11] turn out when GSCWAFSGVAATESA [Der f 1 (131-145) peptide GSCWAFSGVAATESA, Peptide ID 3324.0670] was run?
A: 9.32 µM

Q: And the IC50 [12]?
A: 7.93 µM

Q: And the IC50 [13]?
A: 1.33 µM

Q: Which IC50 [14] does the source give for DSYKFIPTLVAAVKQ [Lol p 5 1 peptide, position 236, DSYKFIPTLVAAVKQ (Peptide ID 3324.1165)] here?
A: 5.86 µM

Q: And the IC50 [15]?
A: 50 µM

Q: What about the IC50 [4] of the same binder?
A: 4.64 µM

Q: What does the source list for FSGVAATESAYLAYR [Der f 1 (136-150) peptide FSGVAATESAYLAYR, Peptide ID 3324.0666]?
A: IC50 [11]: 1.21 µM; IC50 [12]: 4.19 µM; IC50 [13]: 2.02 µM

Q: For DIYNYMEPYVSKVDP [Dac g 4 peptide 1-15 DIYNYMEPYVSKVDP (Peptide ID 3324.0663)], which IC50 (HLA-DP DPB1*0401) is on record?
A: 23.4 µM

Q: How did the IC50 (HLA-DP DPB1*0401) turn out when EKALWIIFSQNMNIK [Cup s 1 peptide 86-100 EKALWIIFSQNMNIK (Peptide ID 3324.0615)] was run?
A: 1.54 µM

Q: ASEVFKAVEAYLVAH [Que a 1 (141-155) peptide ASEVFKAVEAYLVAH] was tested. Which IC50 [6] did it give?
A: 0.953 µM

Q: And the IC50 [7]?
A: 5.31 µM

Q: And the IC50 [8]?
A: 2.04 µM

Q: What does the source list for LWEVKSAKPLTGPMN [Lol p 3 peptide, position 51, LWEVKSAKPLTGPMN (Peptide ID 3337.0031)]?
A: IC50 [14]: 2.44 µM; IC50 [5]: 3.95 µM

Q: GSDEKNLALSIKYNK [Dac g 2 (11-25) peptide GSDEKNLALSIKYNK] was tested. Which IC50 [6] did it give?
A: 7.2 µM

Q: What about the IC50 [8] of the same binder?
A: 50 µM

Q: And the IC50 [9]?
A: 0.13 µM

Q: With EDTNIYNSNEAFKVE [Cup a 1 (316-330) peptide EDTNIYNSNEAFKVE] as the binder, how does the IC50 [6] read?
A: 7.54 µM

Q: And the IC50 [7]?
A: 2.42 µM

Q: What about the IC50 [9] of the same binder?
A: 8.29 µM

Q: RYANPIAFFRKEPLK [Lol p 11 peptide, position 111, RYANPIAFFRKEPLK (Peptide ID 3324.1138)] was tested. Which IC50 [14] did it give?
A: 26 µM

Q: What about the IC50 [15] of the same binder?
A: 0.793 µM

Q: And the IC50 [4]?
A: 1.6 µM

Q: And the IC50 [5]?
A: 9.74 µM

Q: How did the IC50 [2] turn out when DINVGFKAAVAAAAG [Poa p 5 peptide, position 56, DINVGFKAAVAAAAG (Peptide ID 3324.1571)] was run?
A: 0.295 µM

Q: And the IC50 [3]?
A: 20.7 µM

Q: ASVIPPARLFKAFVL [Que a 1 peptide 11-25 ASVIPPARLFKAFVL (Peptide ID 3324.1587)] was tested. Which IC50 (HLA-DP DPB1*0401) did it give?
A: 0.917 µM

Q: How did the IC50 [16] turn out when DEYVEQVAQYKALPV [Fel d 1 1 peptide, position 41, DEYVEQVAQYKALPV (Peptide ID 3324.1049)] was run?
A: 1.12 µM

Q: What about the IC50 [17] of the same binder?
A: 0.533 µM

Q: Which results are given for DAYVATLTEALRVIA [Lol p 5 1 peptide, position 151, DAYVATLTEALRVIA (Peptide ID 3324.1167), listing 2 of 2 here]?
A: IC50 [14]: 1.8 µM; IC50 [15]: 50 µM; IC50 [4]: 50 µM
